Target: recombinant H2AK119Ub mono-nucleosomes (UniProt P04908)
Test: AlphaScreen or HTRF; Alphalisa: GST-SSX or GST-SSXdel7aa titrated against 10nM biotinylated nucleosomes; EC50 by nonlinear regression

Chain of GST-SSX1 (78aa) (Q16384 111-188): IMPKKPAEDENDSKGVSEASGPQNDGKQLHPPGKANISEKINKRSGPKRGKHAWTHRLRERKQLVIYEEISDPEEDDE

Question: Which fold difference (Ub/unmod) by AlphaLisa does the source give for “GST-SSX1 (78aa) (from UniProt Q16384 111-188) (domain or fragment)” here?
Answer: 4.8 fold

— article PMC7714695
